{
  "source": "the nanobody polyreactivity screen of Harvey et al. (2022)",
  "data": [
    {"assay": "yeast display, Sf9 membrane polyspecificity reagent, FACS + sequencing; frameworks hold sequencing errors", "how_it_was_run": "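In a synthetic yeast display library (Saccharomyces cerevisiae BJ5465), nanobody expression was induced with galactose for 36–48 hours. FACS gates were set low and high (top ~1%) using anti-HA fluorescence for expression and streptavidin fluorescence for binding of the Sf9 membrane reagent. Each polyreactivity label is drawn from the gate of origin.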", "values": [
      {"sequence": "QVQLVESGGGLVPAGGSLRLSCAASGSIFEGNAMGWYRQAPGKERELVAAISTTGGITYYADSVKGRFTISRDNAKNTVYLQMNSLKPEETAVYYCAADPSQPRIDSSNYDYWGQGTQVTVSS", "polyreactivity (PSR sort gate)": "low polyreactivity"},
      {"sequence": "QVQLVESGGGLVPAGGSLRLSCAASGSTFIAYTRGWYRKAPGKERELVAAISGTGGTTYADSVKGRFTISRDNAKNTVYLQMNSLKPEDTAVYYCAAQYRYTYWGQATQVTVSS", "polyreactivity (PSR sort gate)": "low polyreactivity"},
      {"sequence": "QVQLVESGGGLVPAGGSLRLSCAASGYIFDYNAMGWYRQAPGKERELVAAITFRDGSTYADSVKGRFTISRDNAKNTVYLQMNSLKPEDTAVYYCNRRSQVHSHSKHDYWGQGTQVTVSS", "polyreactivity (PSR sort gate)": "low polyreactivity"},
      {"sequence": "QVQLVESGGGLVPAGGSLRLSSAASGRIFVRNAMGWYRQAPGKERELVAAITRTGASTYYADSVKGRFTISRDNEKNTVYLQMNSLKPEDTAVYFFAAVWGWPYWVYRYDYWGQGTQVTVSS", "polyreactivity (PSR sort gate)": "high polyreactivity"},
      {"sequence": "QVQLVESGGGLVPAGGSLRLSWAASGRIFPRNTMGWYRQAPGKERELVAAISVSGGSTYYADSVKGRFTISRDNAKNTVYLQMNSLKPEDTAVYYSAARSARLEYYYWGQGTQVTVSS", "polyreactivity (PSR sort gate)": "high polyreactivity"},
      {"sequence": "QVQLVESGGGLVQAAGSLRLSCAASGGTFWFYDMGWYRQAPGKERELVAAINSDGSTYYADSVKGRFTISRDNAKNTVYLQMNSLKPEDTAVYYCAVDQTYVGEGLSEVDVGYWGQGTQVTVSS", "polyreactivity (PSR sort gate)": "low polyreactivity"},
      {"sequence": "QVQLVESGGGLVQAAGSLRLSCAASGITFVTYDRGWYRQAPGKEWELVAAISRSGVRTYYADSVKWRFTISRDNAKNTVYLQMNSLKPEDTAVYYCAAERKNKYDYWGLGTQVTVSS", "polyreactivity (PSR sort gate)": "high polyreactivity"},
      {"sequence": "QVQLVESGGGLVQAAGSLRLSCAASGNTFRWYVMGWYRQAPGKERELVAAITSSGSNTYYADSVKGRFTISRDNAKNTVYLQMNSLKPEDTAVYYCAARNYGPYDYWGQGTQVTVSS", "polyreactivity (PSR sort gate)": "low polyreactivity"},
      {"sequence": "QVQLVESGGGLVQAAGSLRLSCAASGRTFGQYVMGGSRQAPGKERELVAAISGIGGSTYYADSVKGRFTISRDNAKNTVYLQMNSLIPDDTAVYYCAVELYWYPGYDYWGQGTQVTVSS", "polyreactivity (PSR sort gate)": "low polyreactivity"},
      {"sequence": "QVQLVESGGGLVQAAGSLRLSCAASGSIFGPNAMGWYRQAPGKERELVASITLSGGSTYYADSVKGRFTISRDNAKNNVYLQMNSLKPVDTAVYYCNADLLPADAPLWVTGGDYWGQGTQVTVSS", "polyreactivity (PSR sort gate)": "low polyreactivity"},
      {"sequence": "QVQLVESGGGLVQAAGSLRLSCAASGSIFVRNAMGWYRQAPGKEREFVAAISWRGGTYYADSVKGRFTISRDNAKNTVYLQMNSLKPEDSAVYYCAARLYPTPGNGALGKTAWVYYWGQGTQVTVSS", "polyreactivity (PSR sort gate)": "low polyreactivity"},
      {"sequence": "QVQLVESGGGLVQAAGSLRLSCAASGSIFYNYAMGWYRQAPGKERELVAAITSGGITYYADSVKGRFTISRDNAKNTVYLQMNSLKPEYTAVYYCAAESLTGYGHYDYWGQGTQVTVSS", "polyreactivity (PSR sort gate)": "low polyreactivity"},
      {"sequence": "QVQLVESGGGLVQAAGSLRLSFAASGGIFSYYVMGWYRQAPGKEREFVASITQRGRTYYADSVKGRFTISRDNAKNTVYLQMNSLKPEDTAVYYCAAGIYAFRRHREEYDYWGQGTQVTVSS", "polyreactivity (PSR sort gate)": "high polyreactivity"},
      {"sequence": "QVQLVESGGGLVQAAGSLRLSYAASGSTFVYNGMGSYRQAPAKERELVATISSTGSTNYADSVKGRFTISRDNAKNTVYLQMNSLKPEDTAVYYCATEYITYRAYDYWGQGTQVTVSS", "polyreactivity (PSR sort gate)": "low polyreactivity"},
      {"sequence": "QVQLVESGGGLVQAGAILRLSCAASGYIFVSYYLGWYRQAPGKEREVVAAISWRGGSTFYADSVKGRFTISRDNAKNTVYLQMNSLKPEDTAVFYCAVDDWLDWLFADFGYWGQGTQVTVSS", "polyreactivity (PSR sort gate)": "low polyreactivity"},
      {"sequence": "QVQLVESGGGLVQAGASLRLSCAASGFIFGGNAMGWYRQAPGKERELVAAISTTGGRTYYADSVKGRFTISRDNAKNTVYLQMNSRKPEDTAVYYCNAGYDSYCRYYWYWYSFNYWGQGTQVNVSS", "polyreactivity (PSR sort gate)": "high polyreactivity"},
      {"sequence": "QVQLVESGGGLVQAGASLRLSCAASGFNFDTNTIGWYRQAPGKERELVAVITRRGGRTYDADSVKGRFTISRDNAKNRVYLQMNSLKPVDTAVYYFNSVSYGQYGWGEGTQVTVSS", "polyreactivity (PSR sort gate)": "high polyreactivity"},
      {"sequence": "QVQLVESGGGLVQAGASLRLSCAASGFTFTPYAMGWYRQAPGKERELVAGITSGVGRKYADSVKGRFTISRDNAKNTVYLQMNSLKPEDTAVYFCAARYDHWGQGTQVTVSS", "polyreactivity (PSR sort gate)": "high polyreactivity"},
      {"sequence": "QVQLVESGGGLVQAGASLRLSCAASGNIFGLYAMGWYRPAPGKERELVAAISDGVSTNYADSVKGRFTISRDNAKITVYLQMNSLKPEDTAVYYCAADQEGYGNWDSEYDYWGQVTQVTVSS", "polyreactivity (PSR sort gate)": "low polyreactivity"},
      {"sequence": "QVQLVESGGGLVQAGASLRLSCAASGNILVGNDMGWYRQAPWKERELVAAISSGDTTSYADSVKGRFTISRDNAKNTVYLQMNSLKPEDTAVYYCAVDRSLSPFAYDYWGQGTQVTVSS", "polyreactivity (PSR sort gate)": "low polyreactivity"},
      {"sequence": "QVQLVESGGGLVQAGASLRLSCAASGRIFRYNAMGWYRQAPGKERELVAAISSGGSRNYADSVKGRFTTSRDNSKNTVYLQMNSLKPEDTAVYYCNAESVHRYPGWGYDYWGHGTQVTVSS", "polyreactivity (PSR sort gate)": "low polyreactivity"}
    ]}
  ]
}
